Measured values from US20080299140A1, “Immunogenic Composition and Peptide Sequences for Prevention and Treatment of an Hsv Condition” (priority 2002, published 2008).
pIC50: −log10 of the molar value.

Legend:
[1] = target: HLA-DR(α1*0101,α3*0101) (human); assay: competition assay on purified HLA; tracer LOL (191-210)
[2] = target: HLA-DR(α1*0101,α4*0101) (human); assay: competition assay on purified HLA; tracer E2/E168
[3] = target: HLA-DP(α1*0101,α1*0401) (human); assay: competition assay on purified HLA; tracer bOxy 271-287
[4] = target: HLA-DR(α1*0101,α1*0301) (human); assay: competition assay on purified HLA; tracer MT (2-16)
[5] = target: DRB4=HLA-DR(α1*0101,α4*0101) (human); assay: HLA class II competition binding assay, biotinylated tracer peptide
[6] = target: DR13=HLA-DR(α1*0101,α1*1301) (human); assay: as above
[7] = target: DR15=HLA-DR(α1*0101,α1*1501) (human); assay: as above
[8] = target: DR7=HLA-DR(α1*0101,α1*0701) (human); assay: as above
[9] = target: DR11=HLA-DR(α1*0101,α1*1101) (human); assay: as above
[10] = target: DP401=HLA-DP(α1*0101,α1*0401) (human); assay: as above
[11] = target: DRB5=HLA-DR(α1*0101,α5*0101) (human); assay: as above
[12] = target: DRB3=HLA-DR(α1*0101,α3*0101) (human); assay: as above
[13] = target: DR3=HLA-DR(α1*0101,α1*0301) (human); assay: as above
[14] = target: DR1=HLA-DR(α1*0101,α1*0101) (human); assay: as above
[15] = target: HLA-DR(α1*0101,α1*1501) (human); assay: competition assay on purified HLA; tracer A3 (152-166)
[16] = target: HLA-DR(α1*0101,α1*0101) (human); assay: competition assay on purified HLA; tracer HA (307-319)
[17] = target: HLA-DR(α1*0101,α5*0101) (human); assay: as above
[18] = target: HLA-DR(α1*0101,α1*1101) (human); assay: as above
[19] = target: HLA-DR(α1*0101,α1*1301) (human); assay: competition assay on purified HLA; tracer B1 (21-36)
[20] = target: HLA-DR(α1*0101,α1*0701) (human); assay: competition assay on purified HLA; tracer YKL
[21] = target: DP (α1*0101, α1*0402) (human); assay: competition assay on purified HLA; tracer bOxy 271-287
[22] = target: DP402=HLA-DR(α1*0101,α1*0402) (human); assay: HLA class II competition binding assay, biotinylated tracer peptide
[23] = target: DR4=HLA-DR(α1*0101,α1*0401) (human); assay: as above
[24] = target: HLA-DR(α1*0101,α1*0401) (human); assay: competition assay on purified HLA; tracer HA (307-319)

Substance	pIC50 [1]	pIC50 [2]	pIC50 [3]	pIC50 [4]	pIC50 [5]	pIC50 [6]	pIC50 [7]	pIC50 [8]	pIC50 [9]	pIC50 [10]	pIC50 [11]	pIC50 [12]	pIC50 [13]	pIC50 [14]	pIC50 [15]	pIC50 [16]	pIC50 [17]	pIC50 [18]	pIC50 [19]	pIC50 [20]	other results
HSV1 1 (gB809-840) (peptide)	< 4.00	7.37	5.79	6.00	7.37	6.55	8.52	6.53	7.89	5.79	8.22	< 4.00	6.00	8.22	8.52	8.22	8.22	7.89	6.55	6.53	
HSV1 2 (gB401-433) (peptide)	< 4.00			< 4.00		< 4.00	7.22	9.00				< 4.00	< 4.00	> 9.00	7.22	> 9.00			< 4.00	9.00	
HSV1 3 (gB111-140) (peptide)			7.10							7.22					7.52				6.30		
HSV1 4 (gB424-445) (peptide)	< 4.00			< 4.00								< 4.00	< 4.00	7.52		7.52					
HSV1 5 (gB173-204) (peptide)		4.05			4.05																
HSV1 6 (gB243-282) (peptide)				5.40			9.00				8.05		5.40	9.00	9.00	9.00	8.05				
HSV1 7 (gB631-661) (peptide)				< 4.00		< 4.00	7.22						< 4.00		7.22				< 4.00		
HSV1 8 (gB765-799) (peptide)	4.26	6.63	6.97	5.32	6.63	6.50	8.52	7.70	8.40	6.97	8.70	4.26	5.32	8.70	8.52	8.70	8.70	8.40	6.50	7.70	
HSV1 9 (gB837-870) (peptide)	4.24	4.80	5.10	4.94	4.80	6.44	5.61	6.64		5.10	6.25	4.24	4.94	6.31	5.61	6.31	6.25		6.44	6.64	pIC50 [21]: 5.40; pIC50 [22]: 5.40; pIC50 [23]: 5.40; pIC50 [24]: 5.40
HSV1 10 (gB80-106) (peptide)	< 4.00											< 4.00									
HSV1 11 (gB453-483) (peptide)	< 4.00			< 4.00		< 4.00		7.52				< 4.00	< 4.00						< 4.00	7.52	
HSV1 12 (gB568-594) (peptide)				< 4.00		< 4.00							< 4.00						< 4.00		
HSV1 13 (gB590-612) (peptide)			< 4.00							< 4.00											pIC50 [21]: < 4.00; pIC50 [22]: < 4.00
HSV1 14 (gB607-634) (peptide)	< 4.00			< 4.00																	
HSV1 30 (gD0-28) (peptide)	6.27	< 4.00	4.75		< 4.00	< 4.00	4.96	6.43	6.19	4.75	8.15	6.27	7.10		4.96		8.15	6.19	< 4.00	6.43	pIC50 [21]: 5.42; pIC50 [22]: 5.42
HSV1 31 (gD22-52) (peptide)	5.22	6.40	4.21	5.60	6.40	< 4.00				4.21		5.16	5.60	8.52		8.52			< 4.00		pIC50 [21]: 4.33; pIC50 [22]: 4.31; pIC50 [23]: 7.20; pIC50 [24]: 7.20
HSV1 32 (gD77-104) (peptide)	< 4.00		5.84	5.63				8.40	6.52	5.84	9.00	< 4.00	5.63				9.00	6.52		8.40	pIC50 [21]: 6.42; pIC50 [22]: 6.42
HSV1 34 (gD146-179) (peptide)	5.69	6.13	6.94	4.99	6.13	< 4.00	7.46	6.50	6.76	6.94	7.07	5.69	4.99	7.40	7.46	7.40	7.07	6.76	< 4.00	6.50	pIC50 [23]: 6.20; pIC50 [24]: 6.20
HSV1 36 (gD49-82) (peptide)	5.30		6.21	5.90		< 4.00	7.74	6.76	6.92	6.21	7.18	5.30	5.90	8.52	7.74	8.52	7.18	6.92	< 4.00	6.76	pIC50 [21]: 7.01; pIC50 [22]: 7.01; pIC50 [23]: 7.03; pIC50 [24]: 7.03
HSV1 38 (gD176-206) (peptide)	4.60	5.74	7.04	5.87	5.74	6.70		7.68	8.30	7.04	7.04	4.60	5.87	7.27		7.27	7.04	8.30	6.70	7.68	pIC50 [23]: 6.02; pIC50 [24]: 6.02
HSV1 40 (gD228-257) (peptide)	< 4.00	5.93	5.87	5.62	5.93	5.80	8.70	7.70	7.41	5.87		< 4.00	5.62	5.93	8.70	5.93		7.41	5.80	7.70	pIC50 [21]: 5.14; pIC50 [22]: 5.14; pIC50 [23]: 5.00; pIC50 [24]: 5.00
HSV1 41 (gD96-123) (peptide)	< 4.00	5.78	6.59		5.78	5.32	6.78		6.22	6.57		< 4.00		8.52	6.78	8.52		6.22	5.32		
